This passage reports K half results from article PMC4151696.

Data set [1] relates to TRF2. In words: EMSA.
Data set [2] deals with TRF1. In words: EMSA. (In general: A gel shift assay detects complexes by their altered migration in electrophoresis.)

As to Cy3 telomeric PCR product (255 bp), the figures for the K half in data set [1] and in data set [2] were 111 nM and 152 nM, respectively.
